The results in this text go back to patent US20230340160A1 (published 2023).

The target in assay [1] is T1, Human EGFR (immobilized on CM5 sensor chip) (human, UniProt P00533 25-645, limits assumed).
T1 construct: 8000 RU immobilized by amine coupling; also called Epidermal Growth Factor Receptor
Put plainly: SPR; construct (200 nM) captured on immobilized human EGFR, then CD3 fusion injected (FIG. 18C). The protocol:
(§1) Analysis of simultaneous binding of the T-cell bispecific constructs to the tumor antigen and the human CD3ε was performed by direct coupling of 1650 resonance units (RU) of biotinylated D3 domain of MCSP on a sensor chip SA using the standard coupling procedure. Human EGFR was immobilized using standard amino coupling procedure. 8000 RU were immobilized on a CM5 sensor chip at pH 5.5.
(§2) Different T-cell bispecific constructs were captured for 60 s at 200 nM. Human CD3γ(G₄S)₅CD3ε-AcTev-Fc(knob)-Avi/Fc(hole) was subsequently passed at a concentration of 2000 nM and a flow rate of 40 µl/min for 60 s. Bulk refractive index differences were corrected for by subtracting the response obtained on a reference flow cell where the recombinant CD3ε was flown over a surface with immobilized D3 domain of MCSP or EGFR without captured T-cell bispecific constructs.
A general note: Surface plasmon resonance follows binding to a sensor surface in real time, without labels.

Assay [2] deals with T1, Human EGFR (immobilized on CM5 sensor …). The assay is described as follows: SPR; construct (200 nM) captured on immobilized human EGFR, then CD3 fusion injected (FIG. 18B). The protocol:
as §1, §2

Assay [3] has the same target. Put plainly: SPR; construct (200 nM) captured on immobilized human EGFR, then CD3 fusion injected (FIG. 18D). The protocol:
as §1, §2

The target in assay [4] is T2, murine FcγRIV (murine).
T2 construct: Captured on anti-Penta His antibody in SPR; also called muFcγRIV-aviHis-biotin
Put plainly: SPR (Biacore T100, 25 °C); receptor captured on anti-Penta His, construct as analyte 500 - 4000 nM; steady state. The protocol: (§3) For analyzing interaction of different Fc-variants with human FcγRIIIa-V158 and murine FcγRIV direct coupling of around 6,500 resonance units (RU) of the anti-Penta His antibody (Qiagen) is performed on a CM5 chip at pH 5.0 using the standard amine coupling kit (Biacore, Freiburg/Germany). HuFcγRIIIa-V158-K6H6 and muFcγRIV-aviHis-biotin are captured for 60 s at 4 and 10 nM respectively.
(§4) Constructs with different Fc-mutations are passed through the flow cells for 120 s at a concentration of 1000 nM with a flow rate of 30 µl/min. The dissociation is monitored for 220 s. Bulk refractive index differences are corrected for by subtracting the response obtained in a reference flow cell. Here, the Fc-variants are flown over a surface with immobilized anti-Penta His antibody but on which HBS-EP has been injected rather than HuFcγRIIIa-V158-K6H6 or muFcγRIV-aviHis-biotin. Affinity for human FcγRIIIa-V158 and murine FcγRIV was determined for wild-type Fc using a concentration range from 500 - 4000 nM.
(§5) The steady state response was used to derive the dissociation constant KD by non-linear curve fitting of the Langmuir binding isotherm. Kinetic constants were derived using the Biacore T100 Evaluation Software (vAA, Biacore AB, Uppsala/Sweden), to fit rate equations for 1:1 Langmuir binding by numerical integration.

In assay [5] the target is T3, human FcγRIIIa-V158 (human, UniProt P08637 17-208).
T3 construct: His-tagged recombinant receptor captured on anti-Penta His antibody in SPR; also called huFcγRIIIa-V158-K6H6; HuFcγRIIIa-V158-K6H6; not shown: K6H6 tag, named only by this short form
The description is as above. The protocol: as §3, §4, §5

The target of assay [6] is T3, human FcγRIIIa-V158. Put plainly: SPR (Biacore T100, 25 °C); receptor captured on anti-Penta His, construct as analyte; kinetic; second value in parentheses, not explained. The protocol:
as §3, §4, §5

Assay [7] deals with T3, human FcγRIIIa-V158. Put plainly: SPR (Biacore T100, 25 °C); His-tagged receptor captured on anti-Penta His, construct as analyte; kinetic 1:1 fit, one concentration (1000 nM). The protocol: as §3, §4, §5
Assay [8] addresses T2, murine FcγRIV. Put plainly: SPR (Biacore T100, 25 °C); receptor captured on anti-Penta His, construct as analyte; kinetic. The protocol:
as §3, §4, §5

The target of assay [9] is T4, human MCSP expressed on tumor cells (human, UniProt Q6UVK1 30-2322).
T4 construct: whole, on cells; On Colo-38, WM266-4, MV-3 or MDA-MB-435 cells, as named in each row; also called huMCSP; Melanoma-associated Chondroitin Sulfate Proteoglycan
Put plainly: flow cytometry on Colo-38 cells, 50 nM. The protocol:
(§6) Binding of the different bispecific constructs to CD3 on Jurkat cells (ATCC #TIB-152), and the respective tumor antigen on target cells, was determined by FACS. Briefly, cells were harvested, counted and checked for viability. 0.15 - 0.2 million cells per well (in PBS containing 0.1% BSA; 90 µl) were plated in a round-bottom 96-well plate and incubated with the indicated concentration of the bispecific constructs and corresponding IgG controls (10 µl) for 30 min at 4° C. For a better comparison, all constructs and IgG controls were normalized to same molarity. After the incubation, cells were centrifuged (5 min, 350 × g), washed with 150 µl PBS containing 0.1% BSA, resuspended and incubated for further 30 min at 4° C. with 12 µl/well of a FITC-or PE-conjugated secondary antibody. Bound constructs were detected using a FACSCantoII (Software FACS Diva). The “(scFv)₂” molecule was detected using a FITC-conjugated anti-His antibody (Lucerna, #RHIS-45F-Z). For all other molecules, a FITC- or PE-conjugated AffiniPure F(ab′)2 Fragment goat anti-human IgG Fcγ Fragment Specific (Jackson Immuno Research Lab # 109-096-098 / working solution 1:20, or #109-116-170 / working solution 1:80, respectively) was used. Cells were washed by addition of 120 µl/well PBS containing 0.1% BSA and centrifugation at 350 × g for 5 min. A second washing step was performed with 150 µl/well PBS containing 0.1% BSA. Unless otherwise indicated, cells were fixed with 100 µl/well fixation buffer (BD #554655) for 15 min at 4° C. in the dark, centrifuged for 6 min at 400 × g and kept in 200 µl/well PBS containing 0.1% BSA until the samples were measured with FACS CantoII. EC50 values were calculated using the GraphPad Prism software.
(§7) In a first experiment, different bispecific constructs targeting human MCSP and human CD3 were analyzed by flow cytometry for binding to human CD3 expressed on Jurkat, human T cell leukaemia cells, or to human MCSP on Colo-38 human melanoma cells.
(In general: A flow cytometer gives signals particle by particle.)

Assay [10] deals with T3, human FcγRIIIa-V158. Put plainly: SPR (Biacore T100, 25 °C); receptor captured on anti-Penta His, construct as analyte; kinetic 1:1 fit, one concentration (1000 nM). The protocol:
as §3, §4, §5

In assay [11] the target is T5, human CD3 expressed on Jurkat cells (human, UniProt P07766 23-207).
T5 construct: CD3 complex on Jurkat cells (ATCC TIB-152); also called huCD3
The assay is described as follows: flow cytometry on Jurkat cells, 50 nM. The protocol: as §6, §7

T3 sequence (P08637 17-208 F176V): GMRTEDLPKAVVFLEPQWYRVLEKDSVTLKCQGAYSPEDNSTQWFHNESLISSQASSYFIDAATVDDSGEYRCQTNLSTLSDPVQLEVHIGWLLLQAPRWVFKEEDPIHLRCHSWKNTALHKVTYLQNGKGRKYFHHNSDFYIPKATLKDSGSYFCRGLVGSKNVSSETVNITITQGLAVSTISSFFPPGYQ
T2 sequence (A0A0B4J1G0 21-203): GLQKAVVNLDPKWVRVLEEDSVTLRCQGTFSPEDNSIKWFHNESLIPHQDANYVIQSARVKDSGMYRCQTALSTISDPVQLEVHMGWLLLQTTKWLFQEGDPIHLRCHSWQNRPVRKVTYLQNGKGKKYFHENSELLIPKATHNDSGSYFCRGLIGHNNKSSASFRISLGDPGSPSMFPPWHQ
T5 sequence (P07766 23-207 limits assumed): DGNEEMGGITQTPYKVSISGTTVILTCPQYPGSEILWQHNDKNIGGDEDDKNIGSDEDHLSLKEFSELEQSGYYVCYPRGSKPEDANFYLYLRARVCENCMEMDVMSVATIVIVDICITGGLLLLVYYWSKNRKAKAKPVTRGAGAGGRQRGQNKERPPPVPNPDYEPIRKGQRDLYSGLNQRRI
T4 sequence (Q6UVK1 30-2322): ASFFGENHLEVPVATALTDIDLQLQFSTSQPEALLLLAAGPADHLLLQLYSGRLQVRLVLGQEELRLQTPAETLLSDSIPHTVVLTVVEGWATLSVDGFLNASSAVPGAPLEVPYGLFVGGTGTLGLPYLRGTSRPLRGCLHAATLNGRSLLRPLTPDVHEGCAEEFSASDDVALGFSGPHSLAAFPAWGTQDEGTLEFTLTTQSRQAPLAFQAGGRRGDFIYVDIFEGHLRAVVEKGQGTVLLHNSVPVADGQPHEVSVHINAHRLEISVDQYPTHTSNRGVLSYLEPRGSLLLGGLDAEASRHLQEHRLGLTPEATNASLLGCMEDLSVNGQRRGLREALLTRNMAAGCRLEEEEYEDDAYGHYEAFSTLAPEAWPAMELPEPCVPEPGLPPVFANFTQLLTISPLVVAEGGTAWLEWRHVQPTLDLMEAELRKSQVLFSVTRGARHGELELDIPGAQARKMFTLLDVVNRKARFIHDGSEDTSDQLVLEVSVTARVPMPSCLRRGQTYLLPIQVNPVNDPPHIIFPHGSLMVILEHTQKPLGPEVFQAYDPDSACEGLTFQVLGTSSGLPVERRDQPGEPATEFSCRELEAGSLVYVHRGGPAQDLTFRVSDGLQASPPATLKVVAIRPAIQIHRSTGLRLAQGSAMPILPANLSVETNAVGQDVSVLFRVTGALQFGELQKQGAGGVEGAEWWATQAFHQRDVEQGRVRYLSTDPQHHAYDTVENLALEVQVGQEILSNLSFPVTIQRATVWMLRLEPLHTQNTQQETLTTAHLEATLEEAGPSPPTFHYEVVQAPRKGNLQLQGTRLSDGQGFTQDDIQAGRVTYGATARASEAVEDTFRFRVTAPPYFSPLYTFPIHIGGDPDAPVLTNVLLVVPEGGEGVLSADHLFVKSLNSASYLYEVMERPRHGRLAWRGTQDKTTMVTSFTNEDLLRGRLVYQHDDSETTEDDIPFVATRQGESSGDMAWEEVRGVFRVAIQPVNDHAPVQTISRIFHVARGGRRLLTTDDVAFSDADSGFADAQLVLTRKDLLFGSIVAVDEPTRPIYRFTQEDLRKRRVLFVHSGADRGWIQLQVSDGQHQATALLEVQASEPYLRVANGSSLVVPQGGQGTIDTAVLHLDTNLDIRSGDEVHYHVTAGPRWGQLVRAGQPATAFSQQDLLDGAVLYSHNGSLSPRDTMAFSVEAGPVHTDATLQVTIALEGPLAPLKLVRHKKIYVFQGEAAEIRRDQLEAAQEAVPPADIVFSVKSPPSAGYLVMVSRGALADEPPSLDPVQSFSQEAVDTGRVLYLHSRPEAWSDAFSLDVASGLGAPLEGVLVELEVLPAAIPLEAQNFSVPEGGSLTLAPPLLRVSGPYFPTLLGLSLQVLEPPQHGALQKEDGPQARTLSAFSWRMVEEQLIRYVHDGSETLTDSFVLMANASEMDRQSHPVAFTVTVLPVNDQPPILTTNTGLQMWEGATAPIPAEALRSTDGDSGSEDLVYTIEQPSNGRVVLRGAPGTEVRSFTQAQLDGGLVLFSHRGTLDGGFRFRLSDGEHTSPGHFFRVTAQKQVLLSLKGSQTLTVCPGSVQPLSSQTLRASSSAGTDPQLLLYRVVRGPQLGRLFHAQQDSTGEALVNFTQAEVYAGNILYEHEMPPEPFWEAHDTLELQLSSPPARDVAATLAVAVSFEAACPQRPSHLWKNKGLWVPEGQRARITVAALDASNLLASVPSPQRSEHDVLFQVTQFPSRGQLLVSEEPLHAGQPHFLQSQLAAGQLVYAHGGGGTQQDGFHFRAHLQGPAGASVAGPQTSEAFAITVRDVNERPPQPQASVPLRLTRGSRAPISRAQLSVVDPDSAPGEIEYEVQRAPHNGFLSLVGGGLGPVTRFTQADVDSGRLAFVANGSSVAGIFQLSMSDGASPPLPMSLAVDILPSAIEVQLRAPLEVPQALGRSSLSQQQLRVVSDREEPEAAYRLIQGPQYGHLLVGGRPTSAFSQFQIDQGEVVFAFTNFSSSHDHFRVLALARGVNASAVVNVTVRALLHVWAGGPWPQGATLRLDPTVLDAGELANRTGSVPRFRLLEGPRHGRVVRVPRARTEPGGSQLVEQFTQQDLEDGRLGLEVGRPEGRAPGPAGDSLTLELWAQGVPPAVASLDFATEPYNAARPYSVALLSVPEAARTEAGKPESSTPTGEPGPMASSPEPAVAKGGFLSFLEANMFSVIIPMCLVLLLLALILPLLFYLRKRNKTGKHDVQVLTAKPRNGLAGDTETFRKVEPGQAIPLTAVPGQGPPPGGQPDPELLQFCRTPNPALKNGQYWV

B1: “1+1 IgG scFab, one armed inverted” (anti-EGFR/anti-huCD3) (bispecific antibody)
heavy 1: not shown
heavy 2: EVQLVESGGGLVQPGGSLRLSCAASGYSFTGYTMNWVRQAPGKGLEWVALINPYKGVSTYNQKFKDRFTISVDKSKNTAYLQMNSLRAEDTAVYYCARSGYYGDSDWYFDVWGQGTLVTVSSASTKGPSVFPLAPSSKSTSGGTAALGCLVKDYFPEPVTVSWNSGALTSGVHTFPAVLQSSGLYSLSSVVTVPSSSLGTQTYICNVNHKPSNTKVDKKVEPKSCDKTHTCPPCPAPEAAGGPSVFLFPPKPKDTLMISRTPEVTCVVVDVSHEDPEVKFNWYVDGVEVHNAKTKPREEQYNSTYRVVSVLTVLHQDWLNGKEYKCKVSNKALGAPIEKTISKAKGQPREPQVCTLPPSRDELTKNQVSLSCAVKGFYPSDIAVEWESNGQPENNYKTTPPVLDSDGSFFLVSKLTVDKSRWQQGNVFSCSVMHEALHNHYTQKSLSLSPGK
light: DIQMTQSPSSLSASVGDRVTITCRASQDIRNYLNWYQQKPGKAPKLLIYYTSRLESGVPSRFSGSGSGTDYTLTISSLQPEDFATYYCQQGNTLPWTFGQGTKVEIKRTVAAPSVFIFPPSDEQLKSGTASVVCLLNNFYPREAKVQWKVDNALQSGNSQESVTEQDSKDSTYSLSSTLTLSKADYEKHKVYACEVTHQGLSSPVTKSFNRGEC
As to B1, in assay [1], the binding result is on record as “binds”.

B2: “1+1 IgG scFab, one armed” (anti-EGFR/anti-huCD3) (bispecific antibody)
heavy 1: not shown
heavy 2: QVQLVQSGAEVKKPGSSVKVSCKASGFTFTDYKIHWVRQAPGQGLEWMGYFNPNSGYSTYAQKFQGRVTITADKSTSTAYMELSSLRSEDTAVYYCARLSPGGYYVMDAWGQGTTVTVSSASTKGPSVFPLAPSSKSTSGGTAALGCLVKDYFPEPVTVSWNSGALTSGVHTFPAVLQSSGLYSLSSVVTVPSSSLGTQTYICNVNHKPSNTKVDKKVEPKSCDKTHTCPPCPAPEAAGGPSVFLFPPKPKDTLMISRTPEVTCVVVDVSHEDPEVKFNWYVDGVEVHNAKTKPREEQYNSTYRVVSVLTVLHQDWLNGKEYKCKVSNKALGAPIEKTISKAKGQPREPQVCTLPPSRDELTKNQVSLSCAVKGFYPSDIAVEWESNGQPENNYKTTPPVLDSDGSFFLVSKLTVDKSRWQQGNVFSCSVMHEALHNHYTQKSLSLSPGK
light: DIQMTQSPSSLSASVGDRVTITCRASQGINNYLNWYQQKPGKAPKRLIYNTNNLQTGVPSRFSGSGSGTEFTLTISSLQPEDFATYYCLQHNSFPTFGQGTKLEIKRTVAAPSVFIFPPSDEQLKSGTASVVCLLNNFYPREAKVQWKVDNALQSGNSQESVTEQDSKDSTYSLSSTLTLSKADYEKHKVYACEVTHQGLSSPVTKSFNRGEC
In the case of B2, the binding result in [2] is “binds”.

B3: “1+1 IgG scFab” (anti-EGFR/anti-huCD3) (bispecific antibody)
heavy: not shown
chain: DKTHTCPPCPAPEAAGGPSVFLFPPKPKDTLMISRTPEVTCVVVDVSHEDPEVKFNWYVDGVEVHNAKTKPREEQYNSTYRVVSVLTVLHQDWLNGKEYKCKVSNKALGAPIEKTISKAKGQPREPQVCTLPPSRDELTKNQVSLSCAVKGFYPSDIAVEWESNGQPENNYKTTPPVLDSDGSFFLVSKLTVDKSRWQQGNVFSCSVMHEALHNHYTQKSLSLSPGK
light: B2 light
For the molecule B3, the binding result in assay [3] is “binds”.

B4: “2+1 IgG scFab, wt” (anti-MCSP/anti-huCD3) (bispecific antibody)
heavy 1: not shown
heavy 2: not shown
light: DIVLTQSPSSLSASLGDRVTISCSASQGIRNYLNWYQQRPDGTVKLLIYYTSSLHSGVPSRFSGSGSGTDYSLTISNLEPEDIATYYCQQYSKLPWTFGGGTKLEIKRTVAAPSVFIFPPSDEQLKSGTASVVCLLNNFYPREAKVQWKVDNALQSGNSQESVTEQDSKDSTYSLSSTLTLSKADYEKHKVYACEVTHQGLSSPVTKSFNRGEC
notes: LC007 (MCSP, two Fabs) x V9 (CD3, one scFab); wild-type Fc domain with knob/hole; also called Fc-wt
As usually defined, the Kd is the equilibrium constant for the complex coming apart. With B4, the Kd was 1500 nM with murine FcγRIV [4]; 3470 nM in the assay with human FcγRIIIa-V158 [5]; 1200 nM in the assay with human FcγRIIIa-V158 [6]; 600 nM in the assay with human FcγRIIIa-V158 [7]; 576 nM with murine FcγRIV [8].

B5: “2+1 IgG scFab, LALA” (anti-MCSP/anti-huCD3) (bispecific antibody)
heavy 1: not shown
heavy 2: EVQLQESGPGLVKPSQSLSLTCSVTGYSITSGYYWNWIRQFPGNKLEWMGYITYDGSNNYNPSLKNRISITRDTSKNQFFLKLNSVTTEDTATYYCADFDYWGQGTTLTVSSASTKGPSVFPLAPSSKSTSGGTAALGCLVKDYFPEPVTVSWNSGALTSGVHTFPAVLQSSGLYSLSSVVTVPSSSLGTQTYICNVNHKPSNTKVDKKVEPKSCDKTHTCPPCPAPEAAGGPSVFLFPPKPKDTLMISRTPEVTCVVVDVSHEDPEVKFNWYVDGVEVHNAKTKPREEQYNSTYRVVSVLTVLHQDWLNGKEYKCKVSNKALPAPIEKTISKAKGQPREPQVCTLPPSRDELTKNQVSLSCAVKGFYPSDIAVEWESNGQPENNYKTTPPVLDSDGSFFLVSKLTVDKSRWQQGNVFSCSVMHEALHNHYTQKSLSLSPGK
light: B4 light
notes: also called Fc-LALA
Take B5: the binding result in [9] and in assay [11] was “binds” in each case. This molecule also registered an equilibrium dissociation constant (Kd) with human FcγRIIIa-V158 [10] of 2130 nM.
